Where “and” joins values, the source holds several entries; their conditions need not be identical. Equal entries are not always repeated.
Target: the molecule itself
Assay: SEC

B1: vanillin dehydrogenase from Corynebacterium glutamicum ATCC13032 (VDH_(ATCC13032)) (enzyme, UniProt Q8NMB0 1-484, looked up)
chain: MTATFAGIDATKHLIGGQWVEGNSDRISTNINPYDDSVIAESKQASIADVDAAYEAAKKAQAEWAATPAAERSAIIYRAAELLEEHREEIVEWLIKESGSTRSKANLEITLAGNITKESASFPGRVHGRISPSNTPGKENRVYRVAKGVVGVISPWNFPLNLSIRSVAPALAVGNAVVIKPASDTPVTGGVIPARIFEEAGVPAGVISTVAGAGSEIGDHFVTHAVPKLISFTGSTPVGRRVGELAINGGPMKTVALELGGNAPFVVLADADIDAAAQAAAVGAFLHQGQICMSINRVIVDAAVHDEFLEKFVEAVKNIPTGDPSAEGTLVGPVINDSQLSGLKEKIELAKKEGATVQVEGPIEGRLVHPHVFSDVTSDMEIAREEIFGPLISVLKADDEAHAAELANASDFGLSAAVWSKDIDRAAQFALQIDSGMVHINDLTVNDEPHVMFGGSKNSGLGRFNGDWAIEEFTTDRWIGIKRS
  stoichiometry N: 4 and 3 and 2

From article PMC4306973 (Scientific Reports, 2015)
